Source: US20230212587A1, “Mutant Hydroxyphenylpyruvate Dioxygenase Polypeptide, Encoding Gene Thereof and Use Therefor” (Beijing Dabeinong Biotechnology Co., Ltd., priority 2019, published 2023)

B1: AsHPPDm-F372A-A110: Avena sativa HPPD with F372A and deletion of alanine at position 110, SEQ ID NO: 412 (protein)
chain: MPPTPATATGAAAAAVTPEHAARSFPRVVRVNPRSDRFPVLSFHHVELWCADAASAAGRFSFALGAPLAARSDLSTGNSAHASLLLRSGALAFLFTAPYAPPPQEAATAATASIPSFSADAARTFAAAHGLAVRSVGVRVADAAEAFRVSVAGGARPAFAPADLGHGFGLAEVELYGDVVLRFVSYPDETDLPFLPGFERVSSPGAVDYGLTRFDHVVGNVPEMAPVIDYMKGFLGFHEFAEFTAEDVGTTESGLNSVVLANNSEAVLLPLNEPVHGTKRRSQIQTYLEYHGGPGVQHIALASNDVLRTLREMRARTPMGGFEFMAPPQAKYYEGVRRIAGDVLSEEQIKECQELGVLVDRDDQGVLLQIATKPVGDRPTFFLEMIQRIGCMEKDEVGQEYQKGGCGGFGKGNFSELFKSIEDYEKSLEVKQSVVAQKS
modifications: AsHPPDm-F372A-A110 Amino Acid Sequence
B2: ZmHPPDm-F372A-02: Zea mays HPPD mutant F372A, SEQ ID NO: 20 (protein)
chain: MPPTPTAAAAGAAVAAASAAEQAAFRLVGHRNFVRFNPRSDRFHTLAFHHVELWCADAASAAGRFSFGLGAPLAARSDLSTGNSAHASLLLRSGSLSFLFTAPYAHGADAATAALPSFSAAAARRFAADHGLAVRAVALRVADAEEAFRTSVAAGARPAFGPVDLGRGFRLAEVELYGDVVLRYVSYPDGAAGEPFLPGFEGVASPGAADYGLSRFDHIVGNVPELAPAAAYFAGFTGFHEFAEFTTEDVGTAESGLNSMVLANNSENVLLPLNEPVHGTKRRSQIQTFLDHHGGPGVQHMALASDDVLRTLREMQARSAMGGFEFMAPPTSDYYDGVRRRAGDVLTEAQIKECQELGVLVDRDDQGVLLQIAPKPVGDRPTLFLEIIQRIGCMERDEKGQEYQKGGCGGFGKGNFSQLFKSIEDYEKSLEAMQAAAAATAQGS
modifications: ZmHPPDm-F372A Amino Acid Sequence
B3: PfHPPDm-F372A-02: Pseudomonas fluorescens HPPD mutant F372A, SEQ ID NO: 30 (protein)
chain: MADLYENPMGLMGFEFIEFASPTPGTLEPIFEIMGFTKVATHRSKNVHLYRQGEINLILNNEPNSIASYFAAEHGPSVCGMAFRVKDSQKAYNRALELGAQPIHIDTGPMELNLPAIKGIGGAPLYLIDRFGEGSSIYDIDFVYLEGVERNPVGAGLKVIDHLTHNVYRGRMVYWANFYEKLFNFREARYFDIKGEYTGLTSKAMSAPDGMIRIPLNEESSKGAGQIEEFLMQFNGEGIQHVAFLTDDLVKTWDALKKIGMRFMTAPPDTYYEMLEGRLPDHGEPVDQLQARGILLDGSSVEGDKRLLLQIASETLMGPVFFEFIQRKGDDGFGEGNFKALFESIERDQVRRGVLTAD
modifications: PfHPPDm-F372A Amino Acid Sequence
B4: AsHPPDm-F372A-02: Avena sativa HPPD mutant F372A, SEQ ID NO: 4; gene SEQ ID NO: 6 (protein)
chain: MPPTPATATGAAAAAVTPEHAARSFPRVVRVNPRSDRFPVLSFHHVELWCADAASAAGRFSFALGAPLAARSDLSTGNSAHASLLLRSGALAFLFTAPYAPPPQEAATAAATASIPSFSADAARTFAAAHGLAVRSVGVRVADAAEAFRVSVAGGARPAFAPADLGHGFGLAEVELYGDVVLRFVSYPDETDLPFLPGFERVSSPGAVDYGLTRFDHVVGNVPEMAPVIDYMKGFLGFHEFAEFTAEDVGTTESGLNSVVLANNSEAVLLPLNEPVHGTKRRSQIQTYLEYHGGPGVQHIALASNDVLRTLREMRARTPMGGFEFMAPPQAKYYEGVRRIAGDVLSEEQIKECQELGVLVDRDDQGVLLQIATKPVGDRPTFFLEMIQRIGCMEKDEVGQEYQKGGCGGFGKGNFSELFKSIEDYEKSLEVKQSVVAQKS
modifications: AsHPPDm-F372A Amido Acid Sequence

Each molecule was assayed on soybean T1 plants (assay: Tolerance of transgenic soybean T1 plants to mesotrione). Details: mesotrione 210 and 420 g ai/ha, 7 DAT, compared to control vector and wild-type.
Type: in vivo
Text: (§1) The Arabidopsisthaliana T1 plants into which the AsHPPDm-F372A-02 nucleotide sequence was introduced, Arabidopsis thaliana T1 plants into which the AsHPPD-02 nucleotide sequence was introduced and wild-type Arabidopsisthaliana plants (18 days after sowing) were sprayed with topramezone at four different concentrations, i.e., 25 g ai/ha (one-fold field concentration, 1×), 50 g ai/ha (two-fold field concentration, 2×), 100 g ai/ha (four-fold field concentration, 4×) and 0 g ai/ha (water, 0×) to determine the tolerance of Arabidopsisthaliana to the herbicide. The degree of damage caused by the herbicide was measured for each plant according to the proportion of bleached leaf area (the proportion of bleached leaf area=bleached leaf area/total leaf area×100%) 7 days after spraying (7 DAT): the case where there is basically no bleached phenotype is defined as grade 0, the case where the proportion of bleached leaf area is less than 50% is defined as grade 1,the case where the proportion of bleached leaf area is more than 50% is defined as grade 2, and the case where the proportion of bleached leaf area is 100% grade is defined as grade 3.
(§2) In order to further verify the tolerance effect of HPPD (F372A) on other HPPD inhibitors, the soybean T1 plants into which the AsHPPDm-F372A-02 nucleotide sequence was introduced, soybean T1 plants into which the ZmHPPDm-F372A-02 nucleotide sequence was introduced, soybean T1 plants into which the PfHPPDm-F372A-02 nucleotide sequence was introduced, soybean T1 plants into which the AsHPPDm-F372A-A110 nucleotide sequence was introduced, soybean T1 plants into which the control vector DBN11375NN was introduced in Example 8, and the wild-type soybean plants (V3-V4 at seedling stage) were sprayed as follows to detect the herbicide tolerance of each soybean plants, (1) 140 g ai/ha (2-fold field concentration, 2 ×) isoxaflutole; (2) 280 g ai/ha (4-fold field concentration, 4 ×) isoxaflutole; (3) 210 g ai/ha (2-fold field concentration, 2 ×) mesotrione; (4) 420 g ai/ha (4-fold field concentration, 4 ×) mesotrione. According to the method in point 6 of Example 1, after 7 days of spraying (7 DAT), the damage degree of each plant by the herbicide was statistically analyzed, and the scoring and resistance evaluation were carried out accordingly. […]
With B1 the “tolerance to mesotrione, in words” value was “different degrees of tolerance”.
For B2, the “tolerance to mesotrione, in words” value was “different degrees of tolerance”.
In the case of B3, the “tolerance to mesotrione, in words” value is reported as “different degrees of tolerance”.
With B4 the “tolerance to mesotrione, in words” value was “different degrees of tolerance”.

These molecules were tested on soybean T1 plants (assay: Tolerance of transgenic soybean T1 plants to isoxaflutole). Details: isoxaflutole 140 and 280 g ai/ha, 7 DAT, compared to control vector and wild-type.
Type: in vivo
Text: as §1, §2
B1 was tested, and the “tolerance to isoxaflutole, in words” value was “different degrees of tolerance”.
For B2, the “tolerance to isoxaflutole, in words” value was “different degrees of tolerance”.
B3 was tested, and the “tolerance to isoxaflutole, in words” value was “different degrees of tolerance”.
B4 was tested, and the “tolerance to isoxaflutole, in words” value was “different degrees of tolerance”.

What follows are molecules tested on soybean T1 plants (assay: Herbicide tolerance of transgenic soybean T1 plants to topramezone). Details: topramezone 50 and 100 g ai/ha, 7 DAT, compared to control vector DBN11375NN and wild-type.
Type: in vivo
Text: as §1
The soybean T1 plants into which the AsHPPDm-F372A-02 nucleotide sequence was introduced, soybean T1 plants into which the ZmHPPDm-F372A-02 nucleotide sequence was introduced, soybean T1 plants into which the PfHPPDm-F372A-02 nucleotide sequence was introduced, soybean T1 plants into which the AsHPPDm-F372A-A110 nucleotide sequence was introduced, soybean T1 plants into which, the PfHPPDm-F372A-G413W nucleotide sequence was introduced, soybean T1 plants into which the control vector DBN11375NN was introduced and wild-type soybean plants (V3-V4 at seedling stage) were sprayed with topramezone at two different concentrations respectively, i.e. 50 g ai/ha (2-fold field concentration, 2 ×) and 100 g ai/ha (4-fold field concentration, 4 ×) to detect the herbicide tolerance of soybean plants. According to the method in point 6 of Example 1, after 7 days of spraying (7 DAT), the damage degree of each plant by the herbicide was statistically analyzed, and the scoring and resistance evaluation were carried out accordingly. The soybean plants into which the AsHPPDm-F372A-02 nucleotide sequence was introduced were of two strains in total (S1 and S2), the soybean plants into which the ZmHPPDm-F372A-02 nucleotide sequence was introduced were of two strains in total (S3 and S4), the soybean plants into which the PfHPPDm-F372A-02 nucleotide sequence was introduced were of two strains in total (S5 and S6), the soybean plants into which the AsHPPDm-F372A-Al 10 nucleotide sequence was introduced were of two strains in total (S7 and S8), the soybean plants into which the PfHPPDm-F372A-G413W nucleotide sequence was introduced were of two strains in total (S9 and S10), the soybean plants into which the control vector DBN11375NN nucleotide sequence was introduced were of one strain in total (S11), and the wild-type soybean plants were of one strain in total (CK1); and 8 plants were selected from each strain and detected.
For B1, the “tolerance to topramezone, in words” value was “higher tolerance”.
With B2 the “tolerance to topramezone, in words” value was “higher tolerance”.
B3 was tested, and the “tolerance to topramezone, in words” value was “higher tolerance”.
With B4 the “tolerance to topramezone, in words” value was “higher tolerance”.

What follows are molecules tested on rice T1 plants (assay: Herbicide tolerance of transgenic rice T1 plants to topramezone). Details: topramezone 50 and 100 g ai/ha, 7 DAT, compared to wild-type.
Type: in vivo
Text: as §1
The rice T1 plants into which the AsHPPDm-F372A-02 nucleotide sequence was introduced, rice T1 plants into which the AsHPPDm-F372A-A110 nucleotide sequence was introduced, rice T1 plants into which the ZmHPPDm-F372A-02 nucleotide sequence was introduced, rice T1 plants into which the PfHPPDm-F372A-02 nucleotide sequence was introduced and wild-type rice plants (V3-V4 at seedling stage) were sprayed with topramezone at two different concentrations respectively, i.e. 50 g ai/ha (2-fold field concentration, 2 ×) and 100 g ai/ha (4-fold field concentration, 4 ×) to detect the herbicide tolerance of rice plants. According to the method in point 6 of Example 1, after 7 days of spraying (7 DAT), the damage degree of each plant by the herbicide was statistically analyzed, and the scoring and resistance evaluation were carried out accordingly. The rice T1 plants into which AsHPPDm-F372A-02 nucleotide sequence was introduced were of two strains in total (S12 and S13), rice T1 plants into which AsHPPDm-F372A-A1 10 nucleotide sequence was introduced were of two strains in total (S14 and S15), rice T1 plants into which ZmHPPDm-F372A-02 nucleotide sequence was introduced were of two strains in total (S16 and S17), rice T1 plants into which PfHPPDm-F372A-02 nucleotide sequence was introduced were of two strains in total (S18 and S19), and the wild-type rice plants were of one strain in total (CK2); and 8 plants were selected from each strain and tested.
For B1, the “tolerance to topramezone, in words” value was “higher tolerance”.
For B2, the “tolerance to topramezone, in words” value was “higher tolerance”.
For B3, the “tolerance to topramezone, in words” value was “higher tolerance”.
For B4, the “tolerance to topramezone, in words” value was “higher tolerance”.
